According to the supplement of paper PMC7877785:
± gives the uncertainty stated by the source.

Test: self-splicing fitness, log relative to wild type (ln ratio); higher = more splicing; Tetrahymena group I intron in knt gene, E. coli kanamycin selection, DiMSum; sequences stand for … in CUCUCU…GGAGGGAAAAGUUAUCAGGCAUGCACCUGGUAGCUAGUCUUUAAACCAAUAGAUUGCAUCGGUUUAAAAGGCAAGACCGUCAAAUUGCGGGAAAGGGGUCAACAGCCGUUCAGUACCAAGUCUCAGGGGAAACUUUGAGAUGGCCUUGCAAAGGGUAUGGUAAUAAGCUGACGGACAUGGUCCUAACCACGCAGCCAAGUCCUAAGUCAACAGAUCUUCUGUUGAUAUGGAUGCAGUUCACAGACUAAAUGUCGGUCGGGGAAGAUGUAUUCUUCUCAUAAGAUAUAGUCGGACCUCUCCUUAAUGGGAGCUAGCGGAUGAAGUGAUGCAACACUGGAGCCGCUGGGAACUAAUUUGUAUGCGAAAGUAUAUUGAUUAGUUUUGGAGUACUCGUGGUCG
In short: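 Pooled colonies went to amplicon sequencing on an Illumina HiSeq 2500 after six replicate transformations. The plates were LB agar with 100 μg/mL carbenicillin, 50 μM IPTG and 0.2% rhamnose, with or without 25 μg/mL kanamycin, incubated overnight at 37°C or 30°C. The E. coli BL21(DE3) library had all eight P1ex-region intron nucleotides randomised, the intron placed in the knt kanamycin-resistance gene on pET-22b(+). DiMSum fitness is the error-weighted combination of replicate fold changes, kanamycin against none, normalised to wild type.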

Sequence | self-splicing fitness (ln) (30 °C) | self-splicing fitness (ln) (37 °C)
GUUGAGCAAUAUUACGGCUG | -1.41 ± 0.11 | -0.467 ± 0.14
GUUGAGCAAUAUUACGGGAU | -3.14 ± 0.15 | -1.96 ± 0.15
GUUGAGCAAUAUUACGGUGC | -2.79 ± 0.3 | -2.39 ± 0.44
GUUGAGCAAUAUUACGUACG | -2.57 ± 0.39 | -2.31 ± 0.45
GUUGAGCAAUAUUACGUACU | -2.91 ± 0.25 | -2.15 ± 0.2
GUUGAGCAAUAUUACGUCUC |  | -0.823 ± 0.46
GUUGAGCAAUAUUACGUGAC | -2.31 ± 0.24 | -2.48 ± 0.31
GUUGAGCAAUAUUACGUGCA | -1.65 ± 0.45 | -0.908 ± 0.28
GUUGAGCAAUAUUACGUGGA | -1.2 ± 0.37 | -2.45 ± 0.34
GUUGAGCAAUAUUACGUUUA | -3.32 ± 0.28 | -2.33 ± 0.31
GUUUAGCAAUAUUACGAACA | -2.02 ± 0.39 | -1.24 ± 0.26
GUUUAGCAAUAUUACGACCC | -0.68 ± 0.19 | -0.133 ± 0.24
GUUUAGCAAUAUUACGAGAG | -3.02 ± 0.17 | -2 ± 0.14
GUUUAGCAAUAUUACGCAGG | -1.36 ± 0.2 | -2.04 ± 0.34
GUUUAGCAAUAUUACGCGCC | -3.31 ± 0.43 | -2.51 ± 0.44
GUUUAGCAAUAUUACGCGUG | -1.1 ± 0.071 | -0.806 ± 0.082
GUUUAGCAAUAUUACGCUAG | -2.38 ± 0.16 | -0.42 ± 0.13
GUUUAGCAAUAUUACGGAAG | -2.59 ± 0.23 | -0.848 ± 0.22
GUUUAGCAAUAUUACGGCGG | -3.27 ± 0.44 | 
GUUUAGCAAUAUUACGGGUU |  | -2.92 ± 0.35
GUUUAGCAAUAUUACGGUGC | -1.02 ± 0.32 | 0.233 ± 0.44

Sequence | self-splicing fitness (ln) (30 °C) | self-splicing fitness (ln) (37 °C)
GUUUAGCAAUAUUACGUACG | -2.01 ± 0.14 | -0.33 ± 0.17
GUUUAGCAAUAUUACGUUAG | -2.24 ± 0.21 | -0.81 ± 0.18
GUUUAGCAAUAUUACGUUUU | -2.72 ± 0.14 | -1.65 ± 0.18
UAAAAGCAAUAUUACGAAAC | -2.8 ± 0.19 | -3.3 ± 0.43
UAAAAGCAAUAUUACGAAUC | -4.16 ± 0.42 | -2.13 ± 0.21
UAAAAGCAAUAUUACGAGGA | -2.79 ± 0.17 | -1.54 ± 0.14
UAAAAGCAAUAUUACGAGUA | -1.26 ± 0.068 | -0.418 ± 0.082
UAAAAGCAAUAUUACGAUUC | -2.85 ± 0.17 | -1.02 ± 0.2
UAAAAGCAAUAUUACGCAUU | -3.33 ± 0.19 | -2.15 ± 0.19
UAAAAGCAAUAUUACGCCAC |  | -2.02 ± 0.36
UAAAAGCAAUAUUACGCCCA | -0.0418 ± 0.15 | 0.358 ± 0.19
UAAAAGCAAUAUUACGCGCC | -1.76 ± 0.2 | -0.751 ± 0.24
UAAAAGCAAUAUUACGGAAA | -2.5 ± 0.23 | -1.72 ± 0.15
UAAAAGCAAUAUUACGGCAA | -0.166 ± 0.1 | -0.176 ± 0.1
UAAAAGCAAUAUUACGUAAG | -1.01 ± 0.079 | -0.764 ± 0.11
UAAAAGCAAUAUUACGUACU | -0.876 ± 0.073 | -0.401 ± 0.092
UAAAAGCAAUAUUACGUCCG | -0.59 ± 0.082 | 0.205 ± 0.1
UAAAAGCAAUAUUACGUUCA | -0.437 ± 0.083 | -0.259 ± 0.091
UAAAAGCAAUAUUACGUUGC | -3.72 ± 0.27 | -3.17 ± 0.4
UAAAAGCAAUAUUACGUUUG | -2.22 ± 0.1 | -0.909 ± 0.11
UAACAGCAAUAUUACGAAGC | -3.19 ± 0.19 | -2.3 ± 0.27

Sequence | self-splicing fitness (ln) (30 °C) | self-splicing fitness (ln) (37 °C)
UAACAGCAAUAUUACGAAUC | -2.67 ± 0.18 | -2.66 ± 0.29
UAACAGCAAUAUUACGACUC | -0.882 ± 0.084 | -0.517 ± 0.11
UAACAGCAAUAUUACGAGAU | -4.15 ± 0.33 | -2.9 ± 0.2
UAACAGCAAUAUUACGAGUC | -3.74 ± 0.23 | -2.05 ± 0.22
UAACAGCAAUAUUACGAUAA | -1.1 ± 0.076 | -0.209 ± 0.08
UAACAGCAAUAUUACGAUCU | -1.04 ± 0.073 | 0.151 ± 0.099
UAACAGCAAUAUUACGCAGG | -2.5 ± 0.09 | -0.402 ± 0.08
UAACAGCAAUAUUACGCGCC | -1.47 ± 0.1 | -0.587 ± 0.13
UAACAGCAAUAUUACGCUAA | -1.93 ± 0.13 | -1.25 ± 0.12
UAACAGCAAUAUUACGCUGU | -3.79 ± 0.16 | -2.62 ± 0.19
UAACAGCAAUAUUACGGCAC | -2.47 ± 0.13 | -1.63 ± 0.14
UAACAGCAAUAUUACGGUAA | -2.07 ± 0.095 | -1.22 ± 0.081
UAACAGCAAUAUUACGUAAA | -2.6 ± 0.089 | -0.884 ± 0.084
UAACAGCAAUAUUACGUAUC | -3.56 ± 0.19 | -2.43 ± 0.15
UAACAGCAAUAUUACGUAUG | -1.52 ± 0.058 | -0.164 ± 0.075
UAACAGCAAUAUUACGUCCU | -0.956 ± 0.085 | -0.192 ± 0.1
UAACAGCAAUAUUACGUCUA | -0.13 ± 0.049 | 0.144 ± 0.06
UAACAGCAAUAUUACGUCUU | -1.12 ± 0.052 | -0.0714 ± 0.06
UAACAGCAAUAUUACGUGUA | -1.6 ± 0.056 | -0.0928 ± 0.06
